Values of other authors as cited in paper PMC5494978.

Molecular target: Bfd (Pseudomonas aeruginosa) (UniProt Q9HY80)
Chain of UniProt Q9HY80 (Q9HY80 whole entry): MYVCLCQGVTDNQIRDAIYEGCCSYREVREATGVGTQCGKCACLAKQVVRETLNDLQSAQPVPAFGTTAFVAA

Substance: BfrB (from UniProt Q9HY79)
- Kd: 3 µM
